Six molecules from patent US20140087995A1 (published 2014) can be followed below.

A word on the IC50: it is the concentration needed to halve the response being measured.

Numbered stars: 1 amine (or outer) side, 2 acyl side, 3 side chain; on linkers, the order of the positions; unused ones are H or OH. Bridge positions count the residues as written; N and C are the ends. Side chains are listed from the residue outwards. Ends that are not written are not given here. * marks the point of attachment. C20 diacid = O=C(O)CCCCCCCCCCCCCCCCCCC(=O)*; γGlu = O=C(O)[C@H](CCC(=O)[*:2])N[*:1]; AEEA = NCCOCCOCC(=O)O

T1: human amylin receptor (amylin 3(a) receptor: human calcitonin receptor with RAMP-3) (human, UniProt P30988 25-474; O60896 24-148)
T1 construct: whole, on cells; also called hAmylin-R; hAmylinR
T1 sequence (looked up) 1: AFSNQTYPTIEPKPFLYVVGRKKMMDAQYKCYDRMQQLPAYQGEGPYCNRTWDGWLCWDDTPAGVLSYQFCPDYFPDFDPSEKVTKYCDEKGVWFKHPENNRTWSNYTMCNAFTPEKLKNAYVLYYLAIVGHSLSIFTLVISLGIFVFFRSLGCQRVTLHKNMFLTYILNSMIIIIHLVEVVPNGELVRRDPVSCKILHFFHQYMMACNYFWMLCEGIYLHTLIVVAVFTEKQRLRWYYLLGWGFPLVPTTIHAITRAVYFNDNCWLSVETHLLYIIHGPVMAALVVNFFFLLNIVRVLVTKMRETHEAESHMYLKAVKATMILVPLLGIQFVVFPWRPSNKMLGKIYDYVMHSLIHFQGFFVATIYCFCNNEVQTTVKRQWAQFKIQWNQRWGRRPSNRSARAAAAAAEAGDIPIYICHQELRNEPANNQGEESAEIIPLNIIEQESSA
T1 sequence (looked up) 2: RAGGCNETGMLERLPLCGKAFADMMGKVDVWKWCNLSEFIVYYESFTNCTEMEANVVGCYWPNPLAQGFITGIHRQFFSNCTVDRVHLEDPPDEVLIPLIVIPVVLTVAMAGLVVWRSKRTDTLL

B1: N^ε1-[2-[2-[2-[[(4S)-4-carboxy-4-(19-carboxynonadecanoylamino)butanoyl]amino]ethoxy]ethoxy]acetyl]-[Arg17,Pro21,Pro27,Pro31,His35]-h-amylin (peptide)
peptide: K([AEEA-γGlu-C20 diacid])CNTATCATQRLANFLRHSSPNFGAIPSSTPVGSHTY-NH2
modifications: disulfide 2-7; N-terminus assumed
SMILES: CC[C@H](C)[C@H](NC(=O)[C@H](C)NC(=O)CNC(=O)[C@H](Cc1ccccc1)NC(=O)[C@H](CC(N)=O)NC(=O)[C@@H]1CCCN1C(=O)[C@H](CO)NC(=O)[C@H](CO)NC(=O)[C@H](Cc1c[nH]cn1)NC(=O)[C@H](CCCNC(=N)N)NC(=O)[C@H](CC(C)C)NC(=O)[C@H](Cc1ccccc1)NC(=O)[C@H](CC(N)=O)NC(=O)[C@H](C)NC(=O)[C@H](CC(C)C)NC(=O)[C@H](CCCNC(=N)N)NC(=O)[C@H](CCC(N)=O)NC(=O)[C@@H](NC(=O)[C@H](C)NC(=O)[C@@H]1CSSC[C@H](NC(=O)[C@@H](N)CCCCNC(=O)COCCOCCNC(=O)CC[C@H](NC(=O)CCCCCCCCCCCCCCCCCCC(=O)O)C(=O)O)C(=O)N[C@@H](CC(N)=O)C(=O)N[C@@H]([C@@H](C)O)C(=O)N[C@@H](C)C(=O)N[C@@H]([C@@H](C)O)C(=O)N1)[C@@H](C)O)C(=O)N1CCC[C@H]1C(=O)N[C@@H](CO)C(=O)N[C@@H](CO)C(=O)N[C@H](C(=O)N1CCC[C@H]1C(=O)N[C@H](C(=O)NCC(=O)N[C@@H](CO)C(=O)N[C@@H](Cc1c[nH]cn1)C(=O)N[C@H](C(=O)N[C@@H](Cc1ccc(O)cc1)C(N)=O)[C@@H](C)O)C(C)C)[C@@H](C)O
notes: also called 57; compound 57
B2: N^ε1-[2-[2-[2-[[(4S)-4-carboxy-4-(19-carboxynonadecanoylamino)butanoyl]amino]ethoxy]ethoxy]acetyl]-[Arg17,Pro21,Pro27,Pro34]-h-amylin (peptide)
peptide: K([AEEA-γGlu-C20 diacid])CNTATCATQRLANFLRHSSPNFGAIPSSTNVGPNTY-NH2
modifications: disulfide 2-7; N-terminus assumed
SMILES: CC[C@H](C)[C@H](NC(=O)[C@H](C)NC(=O)CNC(=O)[C@H](Cc1ccccc1)NC(=O)[C@H](CC(N)=O)NC(=O)[C@@H]1CCCN1C(=O)[C@H](CO)NC(=O)[C@H](CO)NC(=O)[C@H](Cc1c[nH]cn1)NC(=O)[C@H](CCCNC(=N)N)NC(=O)[C@H](CC(C)C)NC(=O)[C@H](Cc1ccccc1)NC(=O)[C@H](CC(N)=O)NC(=O)[C@H](C)NC(=O)[C@H](CC(C)C)NC(=O)[C@H](CCCNC(=N)N)NC(=O)[C@H](CCC(N)=O)NC(=O)[C@@H](NC(=O)[C@H](C)NC(=O)[C@@H]1CSSC[C@H](NC(=O)[C@@H](N)CCCCNC(=O)COCCOCCNC(=O)CC[C@H](NC(=O)CCCCCCCCCCCCCCCCCCC(=O)O)C(=O)O)C(=O)N[C@@H](CC(N)=O)C(=O)N[C@@H]([C@@H](C)O)C(=O)N[C@@H](C)C(=O)N[C@@H]([C@@H](C)O)C(=O)N1)[C@@H](C)O)C(=O)N1CCC[C@H]1C(=O)N[C@@H](CO)C(=O)N[C@@H](CO)C(=O)N[C@H](C(=O)N[C@@H](CC(N)=O)C(=O)N[C@H](C(=O)NCC(=O)N1CCC[C@H]1C(=O)N[C@@H](CC(N)=O)C(=O)N[C@H](C(=O)N[C@@H](Cc1ccc(O)cc1)C(N)=O)[C@@H](C)O)C(C)C)[C@@H](C)O
notes: also called 50; compound 50
B3: N^ε1-[2-[2-[2-[[(4S)-4-carboxy-4-(19-carboxynonadecanoylamino)butanoyl]amino]ethoxy]ethoxy]acetyl]-[His14,Arg17,Pro21,Pro27,Arg34]-h-amylin (peptide)
peptide: K([AEEA-γGlu-C20 diacid])CNTATCATQRLAHFLRHSSPNFGAIPSSTNVGRNTY-NH2
modifications: disulfide 2-7; N-terminus assumed
SMILES: CC[C@H](C)[C@H](NC(=O)[C@H](C)NC(=O)CNC(=O)[C@H](Cc1ccccc1)NC(=O)[C@H](CC(N)=O)NC(=O)[C@@H]1CCCN1C(=O)[C@H](CO)NC(=O)[C@H](CO)NC(=O)[C@H](Cc1c[nH]cn1)NC(=O)[C@H](CCCNC(=N)N)NC(=O)[C@H](CC(C)C)NC(=O)[C@H](Cc1ccccc1)NC(=O)[C@H](Cc1c[nH]cn1)NC(=O)[C@H](C)NC(=O)[C@H](CC(C)C)NC(=O)[C@H](CCCNC(=N)N)NC(=O)[C@H](CCC(N)=O)NC(=O)[C@@H](NC(=O)[C@H](C)NC(=O)[C@@H]1CSSC[C@H](NC(=O)[C@@H](N)CCCCNC(=O)COCCOCCNC(=O)CC[C@H](NC(=O)CCCCCCCCCCCCCCCCCCC(=O)O)C(=O)O)C(=O)N[C@@H](CC(N)=O)C(=O)N[C@@H]([C@@H](C)O)C(=O)N[C@@H](C)C(=O)N[C@@H]([C@@H](C)O)C(=O)N1)[C@@H](C)O)C(=O)N1CCC[C@H]1C(=O)N[C@@H](CO)C(=O)N[C@@H](CO)C(=O)N[C@H](C(=O)N[C@@H](CC(N)=O)C(=O)N[C@H](C(=O)NCC(=O)N[C@@H](CCCNC(=N)N)C(=O)N[C@@H](CC(N)=O)C(=O)N[C@H](C(=O)N[C@@H](Cc1ccc(O)cc1)C(N)=O)[C@@H](C)O)C(C)C)[C@@H](C)O
notes: also called 84; compound 84
B4: N^ε1-[2-[2-[2-[[(4S)-4-carboxy-4-(19-carboxynonadecanoylamino)butanoyl]amino]ethoxy]ethoxy]acetyl]-[Arg17,Pro21,Pro27,Pro31]-h-amylin (peptide)
peptide: K([AEEA-γGlu-C20 diacid])CNTATCATQRLANFLRHSSPNFGAIPSSTPVGSNTY-NH2
modifications: disulfide 2-7; N-terminus assumed
SMILES: CC[C@H](C)[C@H](NC(=O)[C@H](C)NC(=O)CNC(=O)[C@H](Cc1ccccc1)NC(=O)[C@H](CC(N)=O)NC(=O)[C@@H]1CCCN1C(=O)[C@H](CO)NC(=O)[C@H](CO)NC(=O)[C@H](Cc1c[nH]cn1)NC(=O)[C@H](CCCNC(=N)N)NC(=O)[C@H](CC(C)C)NC(=O)[C@H](Cc1ccccc1)NC(=O)[C@H](CC(N)=O)NC(=O)[C@H](C)NC(=O)[C@H](CC(C)C)NC(=O)[C@H](CCCNC(=N)N)NC(=O)[C@H](CCC(N)=O)NC(=O)[C@@H](NC(=O)[C@H](C)NC(=O)[C@@H]1CSSC[C@H](NC(=O)[C@@H](N)CCCCNC(=O)COCCOCCNC(=O)CC[C@H](NC(=O)CCCCCCCCCCCCCCCCCCC(=O)O)C(=O)O)C(=O)N[C@@H](CC(N)=O)C(=O)N[C@@H]([C@@H](C)O)C(=O)N[C@@H](C)C(=O)N[C@@H]([C@@H](C)O)C(=O)N1)[C@@H](C)O)C(=O)N1CCC[C@H]1C(=O)N[C@@H](CO)C(=O)N[C@@H](CO)C(=O)N[C@H](C(=O)N1CCC[C@H]1C(=O)N[C@H](C(=O)NCC(=O)N[C@@H](CO)C(=O)N[C@@H](CC(N)=O)C(=O)N[C@H](C(=O)N[C@@H](Cc1ccc(O)cc1)C(N)=O)[C@@H](C)O)C(C)C)[C@@H](C)O
notes: also called 49; compound 49
B5: N^ε1-[2-[2-[2-[[(4S)-4-carboxy-4-(19-carboxynonadecanoylamino)butanoyl]amino]ethoxy]ethoxy]acetyl]-[Arg17,Pro21,Pro27,Pro34,His35]-h-amylin (peptide)
peptide: K([AEEA-γGlu-C20 diacid])CNTATCATQRLANFLRHSSPNFGAIPSSTNVGPHTY-NH2
modifications: disulfide 2-7; N-terminus assumed
SMILES: CC[C@H](C)[C@H](NC(=O)[C@H](C)NC(=O)CNC(=O)[C@H](Cc1ccccc1)NC(=O)[C@H](CC(N)=O)NC(=O)[C@@H]1CCCN1C(=O)[C@H](CO)NC(=O)[C@H](CO)NC(=O)[C@H](Cc1c[nH]cn1)NC(=O)[C@H](CCCNC(=N)N)NC(=O)[C@H](CC(C)C)NC(=O)[C@H](Cc1ccccc1)NC(=O)[C@H](CC(N)=O)NC(=O)[C@H](C)NC(=O)[C@H](CC(C)C)NC(=O)[C@H](CCCNC(=N)N)NC(=O)[C@H](CCC(N)=O)NC(=O)[C@@H](NC(=O)[C@H](C)NC(=O)[C@@H]1CSSC[C@H](NC(=O)[C@@H](N)CCCCNC(=O)COCCOCCNC(=O)CC[C@H](NC(=O)CCCCCCCCCCCCCCCCCCC(=O)O)C(=O)O)C(=O)N[C@@H](CC(N)=O)C(=O)N[C@@H]([C@@H](C)O)C(=O)N[C@@H](C)C(=O)N[C@@H]([C@@H](C)O)C(=O)N1)[C@@H](C)O)C(=O)N1CCC[C@H]1C(=O)N[C@@H](CO)C(=O)N[C@@H](CO)C(=O)N[C@H](C(=O)N[C@@H](CC(N)=O)C(=O)N[C@H](C(=O)NCC(=O)N1CCC[C@H]1C(=O)N[C@@H](Cc1c[nH]cn1)C(=O)N[C@H](C(=O)N[C@@H](Cc1ccc(O)cc1)C(N)=O)[C@@H](C)O)C(C)C)[C@@H](C)O
notes: also called 58; compound 58
B6: N^ε1-[2-[2-[2-[[(4S)-4-carboxy-4-(19-carboxynonadecanoylamino)butanoyl]amino]ethoxy]ethoxy]acetyl]-[Gly14,Arg17,Pro21,Pro27,Pro31]-h-amylin (peptide)
peptide: K([AEEA-γGlu-C20 diacid])CNTATCATQRLAGFLRHSSPNFGAIPSSTPVGSNTY-NH2
modifications: disulfide 2-7; N-terminus assumed
SMILES: CC[C@H](C)[C@H](NC(=O)[C@H](C)NC(=O)CNC(=O)[C@H](Cc1ccccc1)NC(=O)[C@H](CC(N)=O)NC(=O)[C@@H]1CCCN1C(=O)[C@H](CO)NC(=O)[C@H](CO)NC(=O)[C@H](Cc1c[nH]cn1)NC(=O)[C@H](CCCNC(=N)N)NC(=O)[C@H](CC(C)C)NC(=O)[C@H](Cc1ccccc1)NC(=O)CNC(=O)[C@H](C)NC(=O)[C@H](CC(C)C)NC(=O)[C@H](CCCNC(=N)N)NC(=O)[C@H](CCC(N)=O)NC(=O)[C@@H](NC(=O)[C@H](C)NC(=O)[C@@H]1CSSC[C@H](NC(=O)[C@@H](N)CCCCNC(=O)COCCOCCNC(=O)CC[C@H](NC(=O)CCCCCCCCCCCCCCCCCCC(=O)O)C(=O)O)C(=O)N[C@@H](CC(N)=O)C(=O)N[C@@H]([C@@H](C)O)C(=O)N[C@@H](C)C(=O)N[C@@H]([C@@H](C)O)C(=O)N1)[C@@H](C)O)C(=O)N1CCC[C@H]1C(=O)N[C@@H](CO)C(=O)N[C@@H](CO)C(=O)N[C@H](C(=O)N1CCC[C@H]1C(=O)N[C@H](C(=O)NCC(=O)N[C@@H](CO)C(=O)N[C@@H](CC(N)=O)C(=O)N[C@H](C(=O)N[C@@H](Cc1ccc(O)cc1)C(N)=O)[C@@H](C)O)C(C)C)[C@@H](C)O
notes: also called 71; compound 71

This test deals with T1, human amylin receptor (amylin 3(a) …). Kind of test: SPA displacement of 125I-rat amylin, hAmylin 3(a) receptor membranes. Put shortly:
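Membranes from BHK Amylin 3(a)/CRE-luc cells (35 ng/μL final) were mixed with SPA beads and test compounds in 50 mM Hepes pH 7.4 with 1 mM CaCl2, 5 mM MgCl₂, 0.1% OA and 0.02% Tween20. Incubation ran 120 min at 25° C with shaking; IC₅₀ came from one-site competition fitting.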
B1: the IC50 was 115 pM.

As to B2, the IC50 worked out at 38 pM.

Consider B3, for which the IC50 is 743 pM.

With B4, the IC50 worked out at 1190 pM.

Take B5: the 50% inhibitory concentration (IC50) was 88 pM.

Regarding B6, the IC50 was found to be 48 pM.
